Source: PMC7809593 (2021)

Molecular target: CXCL12α (Homo sapiens, UniProt P48061, CXCR4 fused to Kate2)
Assay: receptor internalization sensor

B1: CXCR4 (protein)
chain: MEGISIYTSDNYTEEMGSGDYDSMKEPCFREENANFNKIFLPTIYSIIFLTGIVGNGLVILVMGYQKKLRSMTDKYRLHLSVADLLFVITLPFWAVDAVANWYFGNFLCKAVHVIYTVNLYSSVLILAFISLDRYLAIVHATNSQRPRKLLAEKVVYVGVWIPALLLTIPDFIFANVSEADDRYICDRFYPNDLWVVVFQFQHIMVGLILPGIVILSCYCIIISKLSHSKGHQKRKALKTTVILILAFFACWLPYYIGISIDSFILLEIIKQGCEFENTVHKWISITEALAFFHCCLNPILYAFLGAKFKTSAQHALTSVSRGSSLKILSKGKRGGHSSVSTESESSSFHSS
**Q.** How did the Kd turn out when B1 was run?
**A.** Its Kd is roughly 2 nM.
